# Experimental data from PMC6018426, “Crystal structure of the catalytic domain of HIV-1 restriction factor APOBEC3G in complex with ssDNA”.
# B1: 9nt substrate ssDNA (ssDNA)
# DNA: AATCCCAAA
# B2: 9nt polyA (ssDNA)
# DNA: AAAAAAAAA
# B3: 9nt RNA (ssRNA)
# RNA: AAUCCCAAA
# Tests used:
# [1] = target: CTD2* (A3G-CTD2 E259A), His-tagged (Homo sapiens, UniProt Q9HC16 191-384, P200A;L234K;N236A;C243A;P247K;E259A;F310K;Q318K;C321A;Q322A;C356A); assay: MST; Zn2+ (20 uM ZnCl2); 20 mM Bis-Tris pH 6.5, 100 mM NaCl, 1 mM DTT, 0.002% Tween 20; ZnCl2 20 uM (MST) or 10 uM (EMSA); MST incubated at 4 C, measured at room temperature; EMSA incubated 1 h at room temperature, gel at 4 C; settings: protein: recombinant; tags: poly-His (pET-28a), RED-tris-NTA dye
# [2] = target: CTD2* (A3G-CTD2 E259A), GST-purified (Homo sapiens, UniProt Q9HC16 191-384, P200A;L234K;N236A;C243A;P247K;E259A;F310K;Q318K;C321A;Q322A;C356A); assay: competition; EMSA; unlabeled competitor 25-2500 nM against N2; band not affected; 20 mM Bis-Tris pH 6.5, 100 mM NaCl, 1 mM DTT, 0.002% Tween 20; ZnCl2 20 uM (MST) or 10 uM (EMSA); MST incubated at 4 C, measured at room temperature; EMSA incubated 1 h at room temperature, gel at 4 C; settings: protein: recombinant; tags: GST removed by PreScission protease (pGEX6P-1)
# CTD2* (A3G-CTD2 E259A), GST-purified, sequence (Q9HC16 191-384 P200A/L234K/N236A/C243A/P247K/E259A/F310K/Q318K/C321A/Q322A/C356A): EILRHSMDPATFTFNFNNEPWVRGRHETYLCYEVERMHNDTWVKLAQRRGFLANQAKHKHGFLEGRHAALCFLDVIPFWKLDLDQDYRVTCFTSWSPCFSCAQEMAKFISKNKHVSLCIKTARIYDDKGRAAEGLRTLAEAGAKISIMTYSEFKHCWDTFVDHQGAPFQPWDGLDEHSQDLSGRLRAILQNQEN
# CTD2* (A3G-CTD2 E259A), His-tagged, sequence (Q9HC16 191-384 P200A/L234K/N236A/C243A/P247K/E259A/F310K/Q318K/C321A/Q322A/C356A): as above
Binder,Kd [1],binding result [2]
B1,55 ± 12 µM,
B2,,no binding
B3,1500 ± 500 µM,
